Source: US20190127452A1

Experiments:
Assay in all cases: cell-based or functional assay
[1] = target: murine glutamine synthetase N-terminal mutant W60A N61A D63R S66A (mutGS-NT4) (murine) (UniProt P15105)
[2] = target: murine glutamine synthetase N-terminal mutant W60A N61A D63A S66A (mutGS-NT2) (murine) (UniProt P15105)
[3] = target: murine glutamine synthetase N-terminal mutant W60A N61A D63A (mutGS-NT1) (murine) (UniProt P15105)
[4] = target: murine glutamine synthetase N-terminal mutant W60A N61A D63A S66A D76A (mutGS-NT3) (murine) (UniProt P15105)

Measured: recovery of viability of CHO-K1 GS knockout pools in glutamine-free medium

murine glutamine synthetase C-terminal mutant N248A H253A N255A (mutGS-CT2) (from UniProt P15105 1-373)
90 % viability: [1] | [2] | [3] | [4]

murine glutamine synthetase C-terminal mutant E134A E136A E196A E203A (mutGS-CT1) (from UniProt P15105 1-373)
90 % viability: [1] | [2] | [3] | [4]
